First the molecules themselves.
B1: EtO(CO)-dEGF(3F)WE-NH2 (peptide)
peptide: Ethoxycarbonyl-[dD]EG[Phe(3-F)]WE-NH2
SMILES: CCOC(=O)N[C@H](CC(=O)O)C(=O)N[C@@H](CCC(=O)O)C(=O)NCC(=O)N[C@@H](Cc1cccc(F)c1)C(=O)N[C@@H](Cc1c[nH]c2ccccc12)C(=O)N[C@@H](CCC(=O)O)C(N)=O
notes: also called UBP023
B2: 2-NaphthylSO2-dEGF(3F)WE-NH2 (peptide)
peptide: 2Naphthylsulfonyl-[dD]EG[Phe(3-F)]WE-NH2
SMILES: NC(=O)[C@H](CCC(=O)O)NC(=O)[C@H](Cc1c[nH]c2ccccc12)NC(=O)[C@H](Cc1cccc(F)c1)NC(=O)CNC(=O)[C@H](CCC(=O)O)NC(=O)[C@@H](CC(=O)O)NS(=O)(=O)c1ccc2ccccc2c1
notes: also called UBP031
B3: Ts-dEGF(3F)WD-NH2 (peptide)
peptide: Tos-[dD]EG[Phe(3-F)]WD-NH2
SMILES: Cc1ccc(S(=O)(=O)N[C@H](CC(=O)O)C(=O)N[C@@H](CCC(=O)O)C(=O)NCC(=O)N[C@@H](Cc2cccc(F)c2)C(=O)N[C@@H](Cc2c[nH]c3ccccc23)C(=O)N[C@@H](CC(=O)O)C(N)=O)cc1
notes: also called UBP027
B4: Ts-dDGF(3F)WE-NH2 (peptide)
peptide: Tos-[dD]DG[Phe(3-F)]WE-NH2
SMILES: Cc1ccc(S(=O)(=O)N[C@H](CC(=O)O)C(=O)N[C@@H](CC(=O)O)C(=O)NCC(=O)N[C@@H](Cc2cccc(F)c2)C(=O)N[C@@H](Cc2c[nH]c3ccccc23)C(=O)N[C@@H](CCC(=O)O)C(N)=O)cc1
notes: also called UBP025
B5: Ts-dDGF(3F)WD-NH2 (peptide)
peptide: Tos-[dD]DG[Phe(3-F)]WD-NH2
SMILES: Cc1ccc(S(=O)(=O)N[C@H](CC(=O)O)C(=O)N[C@@H](CC(=O)O)C(=O)NCC(=O)N[C@@H](Cc2cccc(F)c2)C(=O)N[C@@H](Cc2c[nH]c3ccccc23)C(=O)N[C@@H](CC(=O)O)C(N)=O)cc1
notes: also called UBP028
B6: Ac-dEGF(3F)1NalE-NH2 (peptide)
peptide: Ac-[dD]EG[Phe(3-F)][1Nal]E-NH2
SMILES: CC(=O)N[C@H](CC(=O)O)C(=O)N[C@@H](CCC(=O)O)C(=O)NCC(=O)N[C@@H](Cc1cccc(F)c1)C(=O)N[C@@H](Cc1cccc2ccccc12)C(=O)N[C@@H](CCC(=O)O)C(N)=O
notes: also called UBP016
B7: Ts-dEGF(3F)WE-NH2 (peptide)
peptide: Tos-[dD]EG[Phe(3-F)]WE-NH2
SMILES: Cc1ccc(S(=O)(=O)N[C@H](CC(=O)O)C(=O)N[C@@H](CCC(=O)O)C(=O)NCC(=O)N[C@@H](Cc2cccc(F)c2)C(=O)N[C@@H](Cc2c[nH]c3ccccc23)C(=O)N[C@@H](CCC(=O)O)C(N)=O)cc1
notes: also called UBP021
B8: MeO(CO)-dEGF(3F)WE-NH2 (peptide)
peptide: Moc-[dD]EG[Phe(3-F)]WE-NH2
SMILES: COC(=O)N[C@H](CC(=O)O)C(=O)N[C@@H](CCC(=O)O)C(=O)NCC(=O)N[C@@H](Cc1cccc(F)c1)C(=O)N[C@@H](Cc1c[nH]c2ccccc12)C(=O)N[C@@H](CCC(=O)O)C(N)=O
notes: also called UBP020
B9: Suc-EGFFE-NH2 (peptide)
peptide: Suc-EGFFE-NH2
SMILES: NC(=O)[C@H](CCC(=O)O)NC(=O)[C@H](Cc1ccccc1)NC(=O)[C@H](Cc1ccccc1)NC(=O)CNC(=O)[C@H](CCC(=O)O)NC(=O)CCC(=O)O
notes: also called UBP002

From patent US20190106460A1 (published 2019) come the findings set out here.

Starred links: 1 amine or outer side, 2 acyl side, 3 side chain; linkers in the order of their positions; H or OH if unused. Non-standard residues stand in square brackets, D forms with d. *: point of attachment. 2Naphthylsulfonyl = O=S(=O)(c1ccc2ccccc2c1)*; 4‑(Br)‑2‑(Me)PhSO2 = Cc1cc(Br)ccc1S(=O)(=O)*; Phe(3-F) = N[C@@H](Cc1cccc(F)c1)C(=O)O; 1Nal = N[C@@H](Cc1cccc2ccccc12)C(=O)O; Benzoyl(4-Br) = O=C(c1ccc(Br)cc1)*; Suc = O=C(CCC(=O)[*:2])[*:1]; Tos = Cc1ccc(S(=O)(=O)*)cc1; Ethoxycarbonyl = CCOC(=O)*; Propionyl = CCC(=O)*; Bz = O=C(c1ccccc1)*; Ahx = NCCCCCC(=O)O; Moc = COC(=O)*

For the first test, the target named is T1, HisβTrCP/Skp1 and HisβTrCP/GSTSkp1 (immobilised on NTA Biacore chip) (UniProt Q9Y297 175-605; P63208 1-163).
T1 construct: SPR: KD values from both surfaces (with or without the GST moiety) were averaged to give the apparent KD; also called βTrCP surfaces
T1 sequence (Q9Y297 175-605, chain 1 of 2): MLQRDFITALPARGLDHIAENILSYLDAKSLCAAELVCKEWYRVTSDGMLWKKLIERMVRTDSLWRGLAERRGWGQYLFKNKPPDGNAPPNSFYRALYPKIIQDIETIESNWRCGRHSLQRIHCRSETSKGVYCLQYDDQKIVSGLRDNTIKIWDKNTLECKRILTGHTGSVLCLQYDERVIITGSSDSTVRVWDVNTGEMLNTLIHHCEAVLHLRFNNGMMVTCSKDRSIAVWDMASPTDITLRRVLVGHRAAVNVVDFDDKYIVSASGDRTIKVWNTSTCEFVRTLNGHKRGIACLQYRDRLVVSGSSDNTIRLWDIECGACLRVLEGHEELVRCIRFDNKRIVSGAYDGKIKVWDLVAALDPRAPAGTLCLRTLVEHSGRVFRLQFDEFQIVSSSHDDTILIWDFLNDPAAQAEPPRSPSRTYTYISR
T1 sequence (P63208 whole entry, chain 2 of 2): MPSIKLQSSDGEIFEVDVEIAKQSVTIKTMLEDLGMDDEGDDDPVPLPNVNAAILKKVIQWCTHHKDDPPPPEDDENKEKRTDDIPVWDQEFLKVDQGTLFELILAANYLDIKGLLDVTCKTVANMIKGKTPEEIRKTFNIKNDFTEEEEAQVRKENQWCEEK
Kind of test: SPR, Biacore T200, βTrCP/Skp1 immobilised. The source says:
As βTrCP was His tagged, an NTA sensor chip was used. This sensor chip has a dextran surface matrix with immobilized nitrilotriacetic acid (NTA) which provides a means of capturing polyHis-tagged proteins through Nickel chelation. It was hoped that addition of Ni⁺ would orient the protein in a specific (and hopefully active) manner as it is covalently immobilised via amine coupling. Addition of EDC:NHS (N-ethyl-N′-(3-[…])-carbodiimide:N-hydroxysuccinimide) converts carboxyl groups on the dextran sensor chip surface to succinamide esters which readily form covalent bonds with primary amines. Each chip contains four flow cells (each a separate surface) which means that compounds/peptides can be passed over different forms of βTrCP and a reference surface simultaneously. If binding to βTrCP is occurring, responses should be the same (accounting for differences in density of surface etc) on each surface.
Small molecule/peptide samples to be assayed for binding to βTrCP surfaces, were provided as 10 mM stocks in 100% DMSO. All samples were tested in running buffer composed of 10 mM HEPES pH 7.4, 150 mM NaCl, 50 μM EDTA, 0.005% p20, and 1% DMSO. Serial dilutions were made using running buffer. Samples were tested over varying concentrations up to a maximum of 100 μM. Two methods of measuring the SPR response were employed: single cycle kinetics which measures the response across different concentrations of sample within a single cycle (no regeneration of surface) and a method that measures the response at a given concentration in each cycle and includes a regeneration wash after each sample injection. The regeneration solution used was the same as running buffer, but included 500 mM NaCl. Data was fitted using Biacore T200 evaluation software. KD values calculated from binding curves from both surfaces (with or without the GST moiety) were averaged to produce apparent KD's for each sample tested.
With Ac-[dD]EG[Phe(3-F)]WE-NH2 (also called UBP017) [Ac-dEGF(3F)WE-NH2], binding was put at a Kd of 250 nM.
The same measure, in the same setting: for B1 the value was 34 nM.
Still for that read-out and setting: to B2 belongs 262 nM; to B3, 680 nM.
Still for that read-out and setting: for B4 the value was 292 nM; for B5, 637 nM; for B6, 590 nM.
For the molecule B7, the dissociation constant (Kd) (in general, the concentration at which binding is half-saturated) was found to be 190 nM.
Still for that read-out and setting: to Bz-[dD]EG[Phe(3-F)]WE-NH2 (also called UBP018) [Bz-dEGF(3F)WE-NH2] belongs 424 nM; to B8, 53 nM; to B9, 29500 nM.
Same read-out and setting: to Propionyl-[dD]EG[Phe(3-F)]WE-NH2 (also called UBP019) [Et(CO)-dEGF(3F)WE-NH2] belongs 150 nM.

The next test has as its target T2, βTrCP (tag cleaved and complexed with Skp1) (UniProt Q9Y297 175-605; P63208 1-163).
T2 construct: Protein of the FP assay (0.035 µM); also called Beta Transducin repeat-containing protein; βTrCP/Skp1
Kind of test: FP competition vs fluorescein-IκB peptide.
For the molecule Ac-[dD]EG[Phe(3-F)]WE-NH2 (also called UBP017) [Ac-dEGF(3F)WE-NH2], the IC50 (commonly the point on the concentration scale where inhibition reaches its midpoint) stood at 102 nM.
The same measure, in the same setting: for B1 the value was 45 nM.
Still for that read-out and setting: for B2 the value was 44 nM; for B3, 34 nM; for B4, 25 nM.
Still for that read-out and setting: for B5 the value was 81 nM.
The molecule B6 showed a concentration for half-maximal inhibition (IC50) of 112 nM.
Consider B7, for which the half-maximal inhibitory concentration (IC50) turned out to be 29 nM.
Same read-out and setting: for Bz-[dD]EG[Phe(3-F)]WE-NH2 (also called UBP018) [Bz-dEGF(3F)WE-NH2] the value was 173 nM; for B8, 76 nM.
The same measure, in the same setting: for B9 the value was 3180 nM; for Propionyl-[dD]EG[Phe(3-F)]WE-NH2 (also called UBP019) [Et(CO)-dEGF(3F)WE-NH2], 145 nM.

In another test the target is Fbw7 (UniProt Q969H0 263-707, limits assumed). The test is described as follows: cell-based or functional assay.
Chain of Fbw7 (Q969H0 263-707 limits assumed): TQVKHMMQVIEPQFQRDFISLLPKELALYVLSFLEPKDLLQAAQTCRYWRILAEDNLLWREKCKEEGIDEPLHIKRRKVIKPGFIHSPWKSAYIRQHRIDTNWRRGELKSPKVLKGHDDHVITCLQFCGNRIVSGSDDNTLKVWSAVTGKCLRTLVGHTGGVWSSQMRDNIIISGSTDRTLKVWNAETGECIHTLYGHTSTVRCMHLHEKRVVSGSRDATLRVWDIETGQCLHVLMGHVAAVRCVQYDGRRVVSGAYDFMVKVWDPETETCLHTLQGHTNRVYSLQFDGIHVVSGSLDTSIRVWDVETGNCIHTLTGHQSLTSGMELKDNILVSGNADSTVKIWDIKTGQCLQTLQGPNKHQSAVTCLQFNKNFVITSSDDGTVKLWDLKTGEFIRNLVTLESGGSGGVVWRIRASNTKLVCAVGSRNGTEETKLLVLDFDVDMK
Regarding Ac-[dD]EG[Phe(3-F)]WE-NH2 (also called UBP017) [Ac-dEGF(3F)WE-NH2], the “% Inhibition Fbw7 @ 10 µM” value came out at 3% and the “% Inhibition Fbw7 @ (100 µM)” value stood at 0%.
In the same order, the values of B1 are 0% and 12%.
For B2, in that order: 10% and 11%.
In the same order, the values of B3 are 3% and 8%.
Turning to B4, the “% Inhibition Fbw7 @ 10 µM” value was 1% and the “% Inhibition Fbw7 @ (100 µM)” value came out at 8%.
For B5, in that order: 4% and 10%.
Take B6: the “% Inhibition Fbw7 @ 10 µM” value came to 3% and the “% Inhibition Fbw7 @ (100 µM)” value stood at 8%.
Regarding B7, the “% Inhibition Fbw7 @ 10 µM” value was found to be 9% and the “% Inhibition Fbw7 @ (100 µM)” value stood at 0%.
In the same order, the values of Bz-[dD]EG[Phe(3-F)]WE-NH2 (also called UBP018) [Bz-dEGF(3F)WE-NH2] are 0% and 5%.
In the same order, the values of B8 are 6% and 8%.
For B9, in that order: 0% and 0%.
On to Propionyl-[dD]EG[Phe(3-F)]WE-NH2 (also called UBP019) [Et(CO)-dEGF(3F)WE-NH2], for which the “% Inhibition Fbw7 @ 10 µM” value turned out to be 0% and the “% Inhibition Fbw7 @ (100 µM)” value was 10%.

For another test, the target named is Skp2 (UniProt Q13309 1-424, limits assumed). Kind of test: cell-based or functional assay.
Chain of Skp2 (Q13309 whole entry): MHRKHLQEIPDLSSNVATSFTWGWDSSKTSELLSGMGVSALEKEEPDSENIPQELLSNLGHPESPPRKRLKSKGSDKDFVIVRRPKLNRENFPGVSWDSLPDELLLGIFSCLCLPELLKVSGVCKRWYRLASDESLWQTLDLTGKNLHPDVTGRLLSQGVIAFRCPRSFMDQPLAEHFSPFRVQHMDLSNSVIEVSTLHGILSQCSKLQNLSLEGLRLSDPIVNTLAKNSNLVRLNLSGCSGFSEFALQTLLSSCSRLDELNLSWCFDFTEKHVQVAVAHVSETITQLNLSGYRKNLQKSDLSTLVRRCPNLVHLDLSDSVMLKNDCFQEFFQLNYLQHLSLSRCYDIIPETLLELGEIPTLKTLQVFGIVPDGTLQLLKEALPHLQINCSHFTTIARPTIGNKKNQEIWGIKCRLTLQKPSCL
Regarding Ac-[dD]EG[Phe(3-F)]WE-NH2 (also called UBP017) [Ac-dEGF(3F)WE-NH2], the “% Inhibition Skp2 @ 10 µM” value is 10% and the “% Inhibition Skp2 @ (100 µM)” value amounted to 27%.
In the same order, the values of B1 are 4% and 4%.
For B2, the “% Inhibition Skp2 @ 10 µM” value worked out at 0% and the “% Inhibition Skp2 @ (100 µM)” value was 17%.
In the case of B3, the “% Inhibition Skp2 @ 10 µM” value was found to be 4% and the “% Inhibition Skp2 @ (100 µM)” value was 6%.
For the molecule B4, the “% Inhibition Skp2 @ 10 µM” value came to 0% and the “% Inhibition Skp2 @ (100 µM)” value was determined as 22%.
Consider B5, for which the “% Inhibition Skp2 @ 10 µM” value worked out at 0% and the “% Inhibition Skp2 @ (100 µM)” value came out at 14%.
For B6, in that order: 0% and 7%.
In the same order, the values of B7 are 19% and 25%.
In the same order, the values of Bz-[dD]EG[Phe(3-F)]WE-NH2 (also called UBP018) [Bz-dEGF(3F)WE-NH2] are 0% and 0%.
For B8, the “% Inhibition Skp2 @ 10 µM” value was 0% and the “% Inhibition Skp2 @ (100 µM)” value came to 16%.
For B9, in that order: 14% and 0%.
In the same order, the values of Propionyl-[dD]EG[Phe(3-F)]WE-NH2 (also called UBP019) [Et(CO)-dEGF(3F)WE-NH2] are 1% and 10%.

The next test addresses T2, βTrCP (tag cleaved and complexed with …). The test is described as follows: FP competition vs fluorescein-IκB peptide. This is another data set of the same source.
For the molecule Ac-[dD]EG[Phe(3-F)]WE-NH2 (also called UBP017) [Ac-dEGF(3F)WE-NH2], the half-maximal inhibitory concentration (IC50) is 102 nM.
On the same count and under the same terms, to B1 belongs 45 nM; to B2, 44 nM.
Same read-out and setting: to B3 belongs 34 nM.
On the same count and under the same terms, to B4 belongs 25 nM; to B5, 81 nM.
As to B6, the concentration for half-maximal inhibition (IC50) stood at 112 nM.
Still for that read-out and setting: to B7 belongs 29 nM; to Bz-[dD]EG[Phe(3-F)]WE-NH2 (also called UBP018) [Bz-dEGF(3F)WE-NH2], 173 nM.
On the same count and under the same terms, to B8 belongs 76 nM; to Propionyl-[dD]EG[Phe(3-F)]WE-NH2 (also called UBP019) [Et(CO)-dEGF(3F)WE-NH2], 145 nM.
On to {4‑(PhO)PhSO2}-[dD]EG[Phe(3-F)]WE-NH2 [4-(PhO)PhSO2-dEG-F(3F)-WE-NH2], for which the IC50 came out at 63 nM.

A further test concerns the target T3, βTrCP (tag cleaved and complexed with Skp1) (UniProt Q9Y297 175-605; P63208 1-163).
T3 construct: Protein of the fluorescence polarisation assay, 0.035 µM; also called Beta Transducin repeat-containing protein; βTrCP/Skp1
Kind of test: fluorescence polarisation assay; the column head does not say whether IC50 or Ki. On the procedure: Assay components (without compound) were premixed in a microcentrifuge tube and incubated for 1 hour to ensure equilibrium was achieved. Each compound was then added to one tube, mixed by vortexing, and then dispensed into 3 wells of a black 384-well plate and incubated for 30 minutes. Fluorescence polarization was then read (excitation 485 nm, emission 530 nm) using an Analyst-AD from Molecular Devices.
Binding of the compounds to βTrCP was assessed using a fluorescence polarisation (FP) binding assay. The FP assay is an in vitro binding assay using a fluorescein-tagged IkB peptide at 10 nM to mimic substrate binding to βTrCP, and was performed as described above.
A general note: In fluorescence polarisation assays a small probe gives low polarisation when free and higher when bound to something large.
As for {4‑(Br)‑2‑(Me)PhSO2}-[dD]EG[Phe(3-F)]WE[Ahx]K(Benzoyl(4-Br))-NH2 (Round II CPP; also called UBP098) [4-(Br)-2-(Me)PhSO2-dEGF(3F)WE-Ahx-K(CO((4-Br)Ph))-NH2], the “FP Assay /” value was 92.4 nM.
